# Laboratory results reported in US20240190915.
# Molecular target: AGR2 (human, endogenous in PDAC cells) (UniProt O95994)
substance,measurement,value
"POLR2A (human, endogenous in PDAC cells)","phosphorylation levels of Ser2/5 residues (p-POLR2A^ser2/5) after AGR2 siRNA transfection, western blot","AGR2 downregulation (by siRNA transfection) reduces the phosphorylation levels of Ser2/5 residues (p-POLR2A^ser2/5), but not the POLR2A expression"
